In assay [1] the target is T1, human calcitonin receptor (human, UniProt P30988 25-474).
T1 sequence (looked up): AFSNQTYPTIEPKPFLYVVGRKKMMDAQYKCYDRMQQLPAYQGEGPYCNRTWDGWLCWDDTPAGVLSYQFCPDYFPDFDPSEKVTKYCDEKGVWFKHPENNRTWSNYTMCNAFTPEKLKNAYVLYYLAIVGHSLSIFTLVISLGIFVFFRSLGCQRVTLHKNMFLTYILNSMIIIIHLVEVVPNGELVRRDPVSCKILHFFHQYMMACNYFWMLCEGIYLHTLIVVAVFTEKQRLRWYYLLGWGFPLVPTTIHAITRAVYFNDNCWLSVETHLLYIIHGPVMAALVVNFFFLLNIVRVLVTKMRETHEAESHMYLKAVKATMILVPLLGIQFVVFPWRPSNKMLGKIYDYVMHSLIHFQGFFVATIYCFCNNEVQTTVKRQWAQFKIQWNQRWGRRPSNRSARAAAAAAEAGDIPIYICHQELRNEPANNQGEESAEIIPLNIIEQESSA
Description: cell-based or functional assay.

Assay [2] has as its target T2, human amylin receptor (amylin 3(a) receptor: human calcitonin receptor plus RAMP-3) (human, UniProt P30988 25-474; O60896 24-148, limits assumed).
T2 sequence (looked up) 1: T1 sequence (looked up)
T2 sequence (looked up) 2: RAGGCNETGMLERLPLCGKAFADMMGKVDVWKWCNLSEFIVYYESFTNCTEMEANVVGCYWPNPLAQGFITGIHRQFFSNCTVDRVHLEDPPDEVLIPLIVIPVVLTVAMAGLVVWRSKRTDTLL
Description: cell-based or functional assay.

Assay [3] deals with T2, human amylin receptor (amylin 3(a) …). Description: SPA competition binding, membranes of Amylin 3(a)/CRE-luc BHK cells, displacement of 125I-rat amylin (Assay V). The method, boiled down: (§1)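 Membranes from BHK Amylin 3(a)/CRE-luc cells (35 ng/μL final) were mixed with SPA beads and test compounds in 50 mM Hepes pH 7.4 with 1 mM CaCl2, 5 mM MgCl₂, 0.1% OA and 0.02% Tween20. Incubation ran 120 min at 25° C with shaking; IC₅₀ came from one-site competition fitting.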

For assay [4], the target named is T3, human calcitonin receptor (human, UniProt P30988 25-474).
T3 sequence (looked up): T1 sequence (looked up)
Description: cell-based or functional assay. The source holds these as a separate data set.

Assay [5] addresses T4, human amylin receptor (amylin 3(a) receptor: human calcitonin receptor with RAMP-3) (human, UniProt P30988 25-474; O60896 24-148, limits assumed).
T4 construct: whole, on cells; Whole cells in the luciferase assay (Assay II a); also called hAmylin-R; hAmylinR
T4 sequence (looked up) 1: T1 sequence (looked up)
T4 sequence (looked up) 2: T2 sequence (looked up) 2
Description: SPA competition binding on membranes of BHK cells with human calcitonin receptor + RAMP-3; displacement of 125I-rat amylin (Assay V). The method, boiled down:
as §1

Numbered stars: 1 amine (or outer) side, 2 acyl side, 3 side chain; on linkers, the order of the positions; unused ones are H or OH. Bridge positions count the residues as written; N and C are the ends. Side chains are listed from the residue outwards. Ends that are not written are not given here. * marks the point of attachment. C20 diacid = O=C(O)CCCCCCCCCCCCCCCCCCC(=O)*; γGlu = O=C(O)[C@H](CCC(=O)[*:2])N[*:1]

B1: N^α1 N^α1-[(4S)-4-carboxy-4-[[(4S)-4-carboxy-4-(19-carboxynonadecanoylamino)butanoyl]amino]butanoyl]-[Glu14,Arg17,Pro21,Pro27]-h-amylin (peptide)
peptide: {C20 diacid-γGlu-γGlu}-KCNTATCATQRLAEFLRHSSPNFGAIPSSTNVGSNTY-NH2
modifications: disulfide 2-7
SMILES: CC[C@H](C)[C@H](NC(=O)[C@H](C)NC(=O)CNC(=O)[C@H](Cc1ccccc1)NC(=O)[C@H](CC(N)=O)NC(=O)[C@@H]1CCCN1C(=O)[C@H](CO)NC(=O)[C@H](CO)NC(=O)[C@H](Cc1c[nH]cn1)NC(=O)[C@H](CCCNC(=N)N)NC(=O)[C@H](CC(C)C)NC(=O)[C@H](Cc1ccccc1)NC(=O)[C@H](CCC(=O)O)NC(=O)[C@H](C)NC(=O)[C@H](CC(C)C)NC(=O)[C@H](CCCNC(=N)N)NC(=O)[C@H](CCC(N)=O)NC(=O)[C@@H](NC(=O)[C@H](C)NC(=O)[C@@H]1CSSC[C@H](NC(=O)[C@H](CCCCN)NC(=O)CC[C@H](NC(=O)CC[C@H](NC(=O)CCCCCCCCCCCCCCCCCCC(=O)O)C(=O)O)C(=O)O)C(=O)N[C@@H](CC(N)=O)C(=O)N[C@@H]([C@@H](C)O)C(=O)N[C@@H](C)C(=O)N[C@@H]([C@@H](C)O)C(=O)N1)[C@@H](C)O)C(=O)N1CCC[C@H]1C(=O)N[C@@H](CO)C(=O)N[C@@H](CO)C(=O)N[C@H](C(=O)N[C@@H](CC(N)=O)C(=O)N[C@H](C(=O)NCC(=O)N[C@@H](CO)C(=O)N[C@@H](CC(N)=O)C(=O)N[C@H](C(=O)N[C@@H](Cc1ccc(O)cc1)C(N)=O)[C@@H](C)O)C(C)C)[C@@H](C)O
notes: also called compound 15
Consider B1, for which, in assay [1], the “Ratio hCT/hAmylin funct. (hCTR EC50 against hAmylin-R EC50)” value was determined as 8.9 and the “hCTR funct. EC50” value worked out at 3.43 nM. Also, the “hAmylin-R funct. EC50” value in assay [2] came to 0.386 nM. Moreover, the IC50 in assay [3] was found to be 0.597 nM.

B2: N^ε1-[(4S)-4-carboxy-4-(19-carboxynonadecanoylamino)butanoyl]-[Asp14,Arg17,Pro21,Pro27,Pro34,Arg35]-h-amylin (peptide)
peptide: K([γGlu-C20 diacid])CNTATCATQRLADFLRHSSPNFGAIPSSTNVGPRTY-NH2
modifications: disulfide 2-7; N-terminus assumed
SMILES: CC[C@H](C)[C@H](NC(=O)[C@H](C)NC(=O)CNC(=O)[C@H](Cc1ccccc1)NC(=O)[C@H](CC(N)=O)NC(=O)[C@@H]1CCCN1C(=O)[C@H](CO)NC(=O)[C@H](CO)NC(=O)[C@H](Cc1c[nH]cn1)NC(=O)[C@H](CCCNC(=N)N)NC(=O)[C@H](CC(C)C)NC(=O)[C@H](Cc1ccccc1)NC(=O)[C@H](CC(=O)O)NC(=O)[C@H](C)NC(=O)[C@H](CC(C)C)NC(=O)[C@H](CCCNC(=N)N)NC(=O)[C@H](CCC(N)=O)NC(=O)[C@@H](NC(=O)[C@H](C)NC(=O)[C@@H]1CSSC[C@H](NC(=O)[C@@H](N)CCCCNC(=O)CC[C@H](NC(=O)CCCCCCCCCCCCCCCCCCC(=O)O)C(=O)O)C(=O)N[C@@H](CC(N)=O)C(=O)N[C@@H]([C@@H](C)O)C(=O)N[C@@H](C)C(=O)N[C@@H]([C@@H](C)O)C(=O)N1)[C@@H](C)O)C(=O)N1CCC[C@H]1C(=O)N[C@@H](CO)C(=O)N[C@@H](CO)C(=O)N[C@H](C(=O)N[C@@H](CC(N)=O)C(=O)N[C@H](C(=O)NCC(=O)N1CCC[C@H]1C(=O)N[C@@H](CCCNC(=N)N)C(=O)N[C@H](C(=O)N[C@@H](Cc1ccc(O)cc1)C(N)=O)[C@@H](C)O)C(C)C)[C@@H](C)O
B2: in assay [4], the “Ratio hCT/hAmylin funct.” value came to 24.9 ratio and the “hCTR funct. EC50 (pM)” value was 3640 pM. Further, in assay [5], the IC50 stood at 0.281 nM.

B3: N^ε1-[(4S)-4-carboxy-4-[[(4S)-4-carboxy-4-(19-carboxynonadecanoylamino)butanoyl]amino]butanoyl]-[Arg17,Pro21,Pro27,Pro31,Pro34,Arg35]-h-amylin (peptide)
peptide: K([γGlu-γGlu-C20 diacid])CNTATCATQRLANFLRHSSPNFGAIPSSTPVGPRTY-NH2
modifications: disulfide 2-7; N-terminus assumed
SMILES: CC[C@H](C)[C@H](NC(=O)[C@H](C)NC(=O)CNC(=O)[C@H](Cc1ccccc1)NC(=O)[C@H](CC(N)=O)NC(=O)[C@@H]1CCCN1C(=O)[C@H](CO)NC(=O)[C@H](CO)NC(=O)[C@H](Cc1c[nH]cn1)NC(=O)[C@H](CCCNC(=N)N)NC(=O)[C@H](CC(C)C)NC(=O)[C@H](Cc1ccccc1)NC(=O)[C@H](CC(N)=O)NC(=O)[C@H](C)NC(=O)[C@H](CC(C)C)NC(=O)[C@H](CCCNC(=N)N)NC(=O)[C@H](CCC(N)=O)NC(=O)[C@@H](NC(=O)[C@H](C)NC(=O)[C@@H]1CSSC[C@H](NC(=O)[C@@H](N)CCCCNC(=O)CC[C@H](NC(=O)CC[C@H](NC(=O)CCCCCCCCCCCCCCCCCCC(=O)O)C(=O)O)C(=O)O)C(=O)N[C@@H](CC(N)=O)C(=O)N[C@@H]([C@@H](C)O)C(=O)N[C@@H](C)C(=O)N[C@@H]([C@@H](C)O)C(=O)N1)[C@@H](C)O)C(=O)N1CCC[C@H]1C(=O)N[C@@H](CO)C(=O)N[C@@H](CO)C(=O)N[C@H](C(=O)N1CCC[C@H]1C(=O)N[C@H](C(=O)NCC(=O)N1CCC[C@H]1C(=O)N[C@@H](CCCNC(=N)N)C(=O)N[C@H](C(=O)N[C@@H](Cc1ccc(O)cc1)C(N)=O)[C@@H](C)O)C(C)C)[C@@H](C)O
In the case of B3, in assay [4], the “Ratio hCT/hAmylin funct.” value was 26 ratio and the “hCTR funct. EC50 (pM)” value is 8660 pM. For the same molecule, in assay [5], the IC50 was 0.88 nM.

B4: N^ε1-[(4S)-4-carboxy-4-[[(4S)-4-carboxy-4-(19-carboxynonadecanoylamino)butanoyl]amino]butanoyl]-[Asp14,Arg17,Pro21,Pro27,Pro34,Arg35]-h-amylin (peptide)
peptide: K([γGlu-γGlu-C20 diacid])CNTATCATQRLADFLRHSSPNFGAIPSSTNVGPRTY-NH2
modifications: disulfide 2-7; N-terminus assumed
SMILES: CC[C@H](C)[C@H](NC(=O)[C@H](C)NC(=O)CNC(=O)[C@H](Cc1ccccc1)NC(=O)[C@H](CC(N)=O)NC(=O)[C@@H]1CCCN1C(=O)[C@H](CO)NC(=O)[C@H](CO)NC(=O)[C@H](Cc1c[nH]cn1)NC(=O)[C@H](CCCNC(=N)N)NC(=O)[C@H](CC(C)C)NC(=O)[C@H](Cc1ccccc1)NC(=O)[C@H](CC(=O)O)NC(=O)[C@H](C)NC(=O)[C@H](CC(C)C)NC(=O)[C@H](CCCNC(=N)N)NC(=O)[C@H](CCC(N)=O)NC(=O)[C@@H](NC(=O)[C@H](C)NC(=O)[C@@H]1CSSC[C@H](NC(=O)[C@@H](N)CCCCNC(=O)CC[C@H](NC(=O)CC[C@H](NC(=O)CCCCCCCCCCCCCCCCCCC(=O)O)C(=O)O)C(=O)O)C(=O)N[C@@H](CC(N)=O)C(=O)N[C@@H]([C@@H](C)O)C(=O)N[C@@H](C)C(=O)N[C@@H]([C@@H](C)O)C(=O)N1)[C@@H](C)O)C(=O)N1CCC[C@H]1C(=O)N[C@@H](CO)C(=O)N[C@@H](CO)C(=O)N[C@H](C(=O)N[C@@H](CC(N)=O)C(=O)N[C@H](C(=O)NCC(=O)N1CCC[C@H]1C(=O)N[C@@H](CCCNC(=N)N)C(=O)N[C@H](C(=O)N[C@@H](Cc1ccc(O)cc1)C(N)=O)[C@@H](C)O)C(C)C)[C@@H](C)O
notes: also called compound 130
B4: in assay [4], the “Ratio hCT/hAmylin funct.” value is 44.9 ratio and the “hCTR funct. EC50 (pM)” value was determined as 7280 pM. In addition, the IC50 in assay [5] was 0.453 nM.

B5: N^ε1-[(4S)-4-carboxy-4-(19-carboxynonadecanoylamino)butanoyl]-[Glu14,Arg17,Pro21,Pro27,Pro34,Arg35]-h-amylin (peptide)
peptide: K([γGlu-C20 diacid])CNTATCATQRLAEFLRHSSPNFGAIPSSTNVGPRTY-NH2
modifications: disulfide 2-7; N-terminus assumed
SMILES: CC[C@H](C)[C@H](NC(=O)[C@H](C)NC(=O)CNC(=O)[C@H](Cc1ccccc1)NC(=O)[C@H](CC(N)=O)NC(=O)[C@@H]1CCCN1C(=O)[C@H](CO)NC(=O)[C@H](CO)NC(=O)[C@H](Cc1c[nH]cn1)NC(=O)[C@H](CCCNC(=N)N)NC(=O)[C@H](CC(C)C)NC(=O)[C@H](Cc1ccccc1)NC(=O)[C@H](CCC(=O)O)NC(=O)[C@H](C)NC(=O)[C@H](CC(C)C)NC(=O)[C@H](CCCNC(=N)N)NC(=O)[C@H](CCC(N)=O)NC(=O)[C@@H](NC(=O)[C@H](C)NC(=O)[C@@H]1CSSC[C@H](NC(=O)[C@@H](N)CCCCNC(=O)CC[C@H](NC(=O)CCCCCCCCCCCCCCCCCCC(=O)O)C(=O)O)C(=O)N[C@@H](CC(N)=O)C(=O)N[C@@H]([C@@H](C)O)C(=O)N[C@@H](C)C(=O)N[C@@H]([C@@H](C)O)C(=O)N1)[C@@H](C)O)C(=O)N1CCC[C@H]1C(=O)N[C@@H](CO)C(=O)N[C@@H](CO)C(=O)N[C@H](C(=O)N[C@@H](CC(N)=O)C(=O)N[C@H](C(=O)NCC(=O)N1CCC[C@H]1C(=O)N[C@@H](CCCNC(=N)N)C(=O)N[C@H](C(=O)N[C@@H](Cc1ccc(O)cc1)C(N)=O)[C@@H](C)O)C(C)C)[C@@H](C)O
In the case of B5, in assay [4], the “Ratio hCT/hAmylin funct.” value amounted to 17 ratio and the “hCTR funct. EC50 (pM)” value turned out to be 6380 pM. Besides, the IC50 in assay [5] was 0.163 nM.

As a reminder, the IC50 is the midpoint of a concentration-inhibition curve.

Values taken from patent US20140087995A1 (published 2014).
